Experimental data from paper PMC3269379, “The Host-Pathogen interaction of human cyclophilin A and HIV-1 Vpr requires specific N-terminal and novel C-terminal domains” (BMC Structural Biology, 2011).
Where two headings read alike, the source gives them in different places.

Target: human cyclophilin A (human) (UniProt P62937)
Assay: SPR

Sequence of human cyclophilin A (human) (P62937 whole entry): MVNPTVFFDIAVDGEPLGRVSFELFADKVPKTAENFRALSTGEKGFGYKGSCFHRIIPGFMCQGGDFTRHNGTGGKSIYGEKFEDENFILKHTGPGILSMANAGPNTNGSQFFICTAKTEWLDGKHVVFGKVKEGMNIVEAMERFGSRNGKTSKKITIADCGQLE
Sequence of HIV-1 capsid (CA) (O93182 133-363): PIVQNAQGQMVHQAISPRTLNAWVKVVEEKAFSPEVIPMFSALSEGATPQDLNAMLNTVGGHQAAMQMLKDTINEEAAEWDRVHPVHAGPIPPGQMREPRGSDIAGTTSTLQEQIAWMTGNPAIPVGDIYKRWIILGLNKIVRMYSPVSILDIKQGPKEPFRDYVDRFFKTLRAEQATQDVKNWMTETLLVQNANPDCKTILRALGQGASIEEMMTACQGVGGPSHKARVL

Row | Substance | Kd [µM] | koff [s⁻¹] | kon [M⁻¹ s⁻¹] | Kd (cited from earlier work) [µM]
1 | Vpr^75-90 (R76Q, V83I, R80A, T84I) (peptide) | 2.7 | 0.095 | 42000 | –
2 | Vpr^75-90 (R76Q, V83I, T84I) (peptide) | 4.7 | 0.071 | 16000 | –
3 | HIV-1 capsid (CA) (from UniProt O93182) | – | – | – | 16
